Data published in US8895281B2, “Method for preparing a site-specific physiologically active polypeptide conjugate” (Hanmi Science Co., Ltd, priority 2009, dated 2014).

Legend:
[1] = target: GLP-1 receptor (CHO/GLP-1R cell line); test: cell-based or functional assay
GLP-1 receptors = target: T1, GLP-1 receptors (Homo sapiens, UniProt P43220); test: In-vitro activity: cAMP increase in CHO/GLP-1R cells; assay type: cell-based; conditions: CHO/GLP-1R cell line; cAMP measured at varying concentrations, EC50 values compared; control Byetta = 100
T1 construct: expressed in transfected cells; host or cells: CHO (CHO/GLP-1R)
T1 sequence (P43220 24-463): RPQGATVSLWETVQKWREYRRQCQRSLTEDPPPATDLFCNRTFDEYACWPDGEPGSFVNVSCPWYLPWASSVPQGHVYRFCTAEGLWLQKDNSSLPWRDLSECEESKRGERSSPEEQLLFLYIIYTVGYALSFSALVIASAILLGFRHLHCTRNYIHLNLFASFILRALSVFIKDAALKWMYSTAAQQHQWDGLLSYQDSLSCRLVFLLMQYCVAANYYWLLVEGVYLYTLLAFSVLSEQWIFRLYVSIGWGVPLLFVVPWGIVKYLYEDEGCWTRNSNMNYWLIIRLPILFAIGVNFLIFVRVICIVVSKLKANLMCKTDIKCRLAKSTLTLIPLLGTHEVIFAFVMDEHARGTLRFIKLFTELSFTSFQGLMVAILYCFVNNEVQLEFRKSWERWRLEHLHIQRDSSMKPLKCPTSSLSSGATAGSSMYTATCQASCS
Protocol: To measure the efficacy of long acting preparation of exendin-4 by pegylation and pegylation site, a method for measuring the in-vitro activity was used. The measurement of in-vitro activity of GLP-1 is a method for measuring whether cAMP's in the cell was increased after treatment of GLP-1 to CHO cell lines to which GLP-1 receptors was cloned. Specifically, CHO/GLP-1R, a cell line in which […], was treated with GLP-1, exendin-4 and test materials described in Table 1 at varying concentrations.

Chain of Byetta (Eli Lilly) (P26349 48-86): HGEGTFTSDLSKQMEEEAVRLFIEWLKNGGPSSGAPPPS

Substance | In-vitro activity (%) (cAMP in CHO/GLP-1R cells, EC50 values compared) [1] | In-vitro activity (%) (GLP-1 receptors)
Byetta (Eli Lilly) (from UniProt P26349 48-86) (peptide) | 100 | –
imidazo-acetyl-exendin-4 [CA-exendin-4] | – | 77
